Results: US20210238252A1

Target: Fc receptor CD16 (UniProt P08637)
Test: cell-based or functional assay

Chain of Fc receptor CD16 (P08637 17-254 limits assumed): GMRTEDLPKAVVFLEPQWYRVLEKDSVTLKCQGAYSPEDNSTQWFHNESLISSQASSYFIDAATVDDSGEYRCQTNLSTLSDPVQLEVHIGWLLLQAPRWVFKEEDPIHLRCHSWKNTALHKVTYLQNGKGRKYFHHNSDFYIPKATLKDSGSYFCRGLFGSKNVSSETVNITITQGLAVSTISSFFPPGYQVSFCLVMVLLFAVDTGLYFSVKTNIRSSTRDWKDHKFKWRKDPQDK

## IgGb12 (antibody)
  IC50, ADCC: killing of BaL-infected CEM.NKR.CCR5+ Luc cells by KHYG-1 CD16+ NK cells: 0.0662 µg/mL
